Reference: paper PMC3701943

Target: W590S murine ABCA1-GFP fusion (murine) (UniProt P41233)
Experiment: flow cytometry on cells

Sequence of UniProt P41233 (P41233 whole entry W590S, the tested form may be a part): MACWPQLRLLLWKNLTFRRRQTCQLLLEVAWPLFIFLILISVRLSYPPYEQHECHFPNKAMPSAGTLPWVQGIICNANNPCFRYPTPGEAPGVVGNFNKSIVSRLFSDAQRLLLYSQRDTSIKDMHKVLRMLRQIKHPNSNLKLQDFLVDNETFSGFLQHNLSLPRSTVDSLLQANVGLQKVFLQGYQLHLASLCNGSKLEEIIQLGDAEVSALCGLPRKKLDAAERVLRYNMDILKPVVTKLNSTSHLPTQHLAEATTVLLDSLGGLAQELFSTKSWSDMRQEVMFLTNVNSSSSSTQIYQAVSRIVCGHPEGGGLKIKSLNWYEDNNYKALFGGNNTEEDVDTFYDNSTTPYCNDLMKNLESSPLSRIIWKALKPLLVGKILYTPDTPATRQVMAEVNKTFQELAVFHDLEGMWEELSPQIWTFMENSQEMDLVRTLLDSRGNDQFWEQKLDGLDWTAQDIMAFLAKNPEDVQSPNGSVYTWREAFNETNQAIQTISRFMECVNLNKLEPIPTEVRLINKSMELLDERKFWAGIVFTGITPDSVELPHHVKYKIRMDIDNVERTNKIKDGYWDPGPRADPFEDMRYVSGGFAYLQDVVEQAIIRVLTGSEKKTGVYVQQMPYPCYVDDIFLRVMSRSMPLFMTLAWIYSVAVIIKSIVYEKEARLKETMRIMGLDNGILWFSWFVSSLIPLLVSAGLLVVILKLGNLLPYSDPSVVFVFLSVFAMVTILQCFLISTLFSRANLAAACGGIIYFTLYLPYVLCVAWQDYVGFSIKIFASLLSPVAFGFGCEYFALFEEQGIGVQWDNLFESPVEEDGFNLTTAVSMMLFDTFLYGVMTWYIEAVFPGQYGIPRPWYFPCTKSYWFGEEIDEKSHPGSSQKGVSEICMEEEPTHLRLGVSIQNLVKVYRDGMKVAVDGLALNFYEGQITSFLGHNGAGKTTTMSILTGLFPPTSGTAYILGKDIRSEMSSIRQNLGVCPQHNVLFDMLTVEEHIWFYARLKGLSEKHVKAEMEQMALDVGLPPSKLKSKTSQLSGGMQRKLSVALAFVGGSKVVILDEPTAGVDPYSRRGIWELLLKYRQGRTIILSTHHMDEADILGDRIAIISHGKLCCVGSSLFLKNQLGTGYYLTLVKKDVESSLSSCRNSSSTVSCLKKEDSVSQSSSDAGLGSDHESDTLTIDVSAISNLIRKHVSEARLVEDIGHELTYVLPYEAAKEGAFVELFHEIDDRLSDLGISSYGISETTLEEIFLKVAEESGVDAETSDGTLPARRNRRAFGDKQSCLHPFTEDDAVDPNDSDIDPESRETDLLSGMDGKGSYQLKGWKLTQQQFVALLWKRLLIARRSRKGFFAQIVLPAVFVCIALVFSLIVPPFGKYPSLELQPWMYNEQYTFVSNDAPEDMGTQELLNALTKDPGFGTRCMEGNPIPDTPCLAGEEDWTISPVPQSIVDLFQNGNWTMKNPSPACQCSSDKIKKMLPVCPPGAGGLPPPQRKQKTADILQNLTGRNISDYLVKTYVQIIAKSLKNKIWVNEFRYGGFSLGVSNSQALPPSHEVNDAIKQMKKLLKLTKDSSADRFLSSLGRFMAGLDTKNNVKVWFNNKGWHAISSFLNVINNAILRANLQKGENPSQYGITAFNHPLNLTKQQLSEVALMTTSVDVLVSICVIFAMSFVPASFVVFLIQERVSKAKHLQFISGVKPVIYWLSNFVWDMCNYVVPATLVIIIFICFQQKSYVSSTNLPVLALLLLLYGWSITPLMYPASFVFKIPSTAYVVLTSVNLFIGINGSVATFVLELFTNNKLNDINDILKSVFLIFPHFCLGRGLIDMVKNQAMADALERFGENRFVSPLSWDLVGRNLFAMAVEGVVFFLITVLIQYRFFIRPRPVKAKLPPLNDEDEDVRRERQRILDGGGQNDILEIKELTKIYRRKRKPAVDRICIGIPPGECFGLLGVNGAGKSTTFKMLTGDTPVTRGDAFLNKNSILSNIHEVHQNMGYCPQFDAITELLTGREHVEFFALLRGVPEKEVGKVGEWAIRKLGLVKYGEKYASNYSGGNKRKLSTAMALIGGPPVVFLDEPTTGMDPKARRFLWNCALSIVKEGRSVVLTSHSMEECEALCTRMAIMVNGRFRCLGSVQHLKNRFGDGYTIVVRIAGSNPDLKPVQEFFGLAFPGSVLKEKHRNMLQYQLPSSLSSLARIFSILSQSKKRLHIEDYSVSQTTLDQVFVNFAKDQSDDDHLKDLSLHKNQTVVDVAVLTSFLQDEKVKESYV

Substance “Alexa647-labeled apoAI (from UniProt P02647 25-267) (ligand)” has a fold apoAI binding against control HEK cells of 6 fold.
